These results are taken from paper doi:10.1101/2020.05.14.095364 (bioRxiv, 2020).

B1: GST-CGN(1-70) (domain or fragment, canine, UniProt A7YH32 1-70, looked up)
chain: MEQASTMAEPRGPVDHGVQIRFITEPVGNAEMDTLRRGGRRPAKDARANTYGVAVRVQGIAGQPFVVLNS
B2: GFP-tagged hZO-1 (residues 1619-1748), isolated ZU5 fragment (domain or fragment, human, UniProt Q07157 1619-1748, looked up)
chain: SAVEEDEDEDGHTVVATARGIFNSNGGVLSSIETGVSIIIPQGAIPEGVEQEIYFKVCRDNSILPPLDKEKGETLLSPLVMCGPHGLKFLKPVELRLPHCDPKTWQNKCLPGDPNYLVGANCVSVLIDHF

Test [1] deals with B2. In words: quantitative GST-pulldown supernatant depletion assay.
The target of test [2] is B1. In words: pull-down.

In turn, B1 came in with an equilibrium dissociation constant (Kd) in test [1] of 40.4 nM.
With B2, in test [2], the “fold binding against the other ZO-1 fragments” value is > 4 fold.

What is called Kd is the equilibrium constant for the complex coming apart. High values mean weaker binding, low ones tighter binding.
